We go through four molecules from US20190194304A1 (STICHTING SANQUIN BLOEDVOORZIENING, published 2019).

T1: recombinant FH CCP 15-19 (human, UniProt P08603 868-1165, 125I label)
T1 construct: domain: CCP 15-19; also called recombinant FH CCP domains 15-19
T1 sequence (looked up): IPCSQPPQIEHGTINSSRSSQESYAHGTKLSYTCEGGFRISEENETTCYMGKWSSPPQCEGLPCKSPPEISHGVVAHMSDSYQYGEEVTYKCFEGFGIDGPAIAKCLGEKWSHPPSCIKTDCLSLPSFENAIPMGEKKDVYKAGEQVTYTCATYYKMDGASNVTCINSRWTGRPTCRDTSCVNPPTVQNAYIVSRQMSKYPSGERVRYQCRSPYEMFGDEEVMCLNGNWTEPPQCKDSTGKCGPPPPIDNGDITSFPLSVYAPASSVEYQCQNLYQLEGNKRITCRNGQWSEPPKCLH

T2: recombinant FH CCP 18-20 (human, UniProt P08603 1046-1231, 125I label)
T2 construct: domain: CCP 18-20; also called recombinant FH CCP domains 18-20
T2 sequence (looked up): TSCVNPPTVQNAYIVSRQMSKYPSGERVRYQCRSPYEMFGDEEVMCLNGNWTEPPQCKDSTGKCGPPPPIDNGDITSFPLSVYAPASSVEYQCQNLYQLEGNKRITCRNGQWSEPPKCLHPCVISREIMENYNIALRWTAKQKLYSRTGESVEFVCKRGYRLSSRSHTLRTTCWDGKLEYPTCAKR

T3: recombinant FH CCP 15-18 (human, UniProt P08603 868-1104, 125I label)
T3 construct: domain: CCP 15-18; also called recombinant FH CCP domains 15-18
T3 sequence (looked up): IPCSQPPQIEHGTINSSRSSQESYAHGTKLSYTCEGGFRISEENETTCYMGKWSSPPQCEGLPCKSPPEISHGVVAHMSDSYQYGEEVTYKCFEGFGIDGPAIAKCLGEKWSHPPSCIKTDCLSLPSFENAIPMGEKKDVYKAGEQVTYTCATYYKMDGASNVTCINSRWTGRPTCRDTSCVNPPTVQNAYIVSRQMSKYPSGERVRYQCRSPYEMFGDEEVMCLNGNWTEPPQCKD

B1: human factor H (other, UniProt P08603 19-1231, looked up)
chain: EDCNELPPRRNTEILTGSWSDQTYPEGTQAIYKCRPGYRSLGNVIMVCRKGEWVALNPLRKCQKRPCGHPGDTPFGTFTLTGGNVFEYGVKAVYTCNEGYQLLGEINYRECDTDGWTNDIPICEVVKCLPVTAPENGKIVSSAMEPDREYHFGQAVRFVCNSGYKIEGDEEMHCSDDGFWSKEKPKCVEISCKSPDVINGSPISQKIIYKENERFQYKCNMGYEYSERGDAVCTESGWRPLPSCEEKSCDNPYIPNGDYSPLRIKHRTGDEITYQCRNGFYPATRGNTAKCTSTGWIPAPRCTLKPCDYPDIKHGGLYHENMRRPYFPVAVGKYYSYYCDEHFETPSGSYWDHIHCTQDGWSPAVPCLRKCYFPYLENGYNQNYGRKFVQGKSIDVACHPGYALPKAQTTVTCMENGWSPTPRCIRVKTCSKSSIDIENGFISESQYTYALKEKAKYQCKLGYVTADGETSGSITCGKDGWSAQPTCIKSCDIPVFMNARTKNDFTWFKLNDTLDYECHDGYESNTGSTTGSIVCGYNGWSDLPICYERECELPKIDVHLVPDRKKDQYKVGEVLKFSCKPGFTIVGPNSVQCYHFGLSPDLPICKEQVQSCGPPPELLNGNVKEKTKEEYGHSEVVEYYCNPRFLMKGPNKIQCVDGEWTTLPVCIVEESTCGDIPELEHGWAQLSSPPYYYGDSVEFNCSESFTMIGHRSITCIHGVWTQLPQCVAIDKLKKCKSSNLIILEEHLKNKKEFDHNSNIRYRCRGKEGWIHTVCINGRWDPEVNCSMAQIQLCPPPPQIPNSHNMTTTLNYRDGEKVSVLCQENYLIQEGEEITCKDGRWQSIPLCVEKIPCSQPPQIEHGTINSSRSSQESYAHGTKLSYTCEGGFRISEENETTCYMGKWSSPPQCEGLPCKSPPEISHGVVAHMSDSYQYGEEVTYKCFEGFGIDGPAIAKCLGEKWSHPPSCIKTDCLSLPSFENAIPMGEKKDVYKAGEQVTYTCATYYKMDGASNVTCINSRWTGRPTCRDTSCVNPPTVQNAYIVSRQMSKYPSGERVRYQCRSPYEMFGDEEVMCLNGNWTEPPQCKDSTGKCGPPPPIDNGDITSFPLSVYAPASSVEYQCQNLYQLEGNKRITCRNGQWSEPPKCLHPCVISREIMENYNIALRWTAKQKLYSRTGESVEFVCKRGYRLSSRSHTLRTTCWDGKLEYPTCAKR
notes: mature; Purified plasma FH (CompTech) in SPR, bridging ELISA and hybridoma screening (biotinylated); FH of healthy donor or aHUS patient serum in the C3b ELISA and the functional assays. aHUS sera carry a heterozygous mutation in CCP 20 that is not specified; also called FH; human purified factor H
B2: monoclonal antibody anti-FH.07 (murine IgG1) (antibody, V domains shown)
VH: QVQLQQSGPGLVQPSQSLSITCTVSDFSLARYGVHWIRQSPGKGLEWLGVIWSGGTADYNAAFISRLNINKDNSKSQVFFKMNSLQANDTAIYYCARNFGNYAVDYWGQGTS
VL: QIVLSQSPTFLSASPGEKVTVTCRASSSVKYMHWYQQKPGASPKPWIFATSNLASGVPARFSGSGSGTSYSLTISRVEAEDAATYYCQQWSIIPPTFGNGTKLELK
notes: Captured with rat anti-mouse kappa RM19; also called intact IgG; intact antibody
B3: F(ab′)2 fragments of anti-FH.07 (other)
VH: B2 VH
VL: B2 VL
notes: also called anti-FH.07 F(ab′)2
B4: Fab′ fragments of anti-FH.07 (Fab, V domains shown)
VH: B2 VH
VL: B2 VL
modifications: free thiol groups blocked with iodoacetamide after reduction with dithioerythritol
notes: also called anti-FH.07 Fab′

Assay [1] addresses T4, C3b (UniProt P01024 23-667; P01024 749-1663, limits assumed).
T4 construct: domain: C3b; C3b has two disulfide-linked chains (beta and alpha′); also called purified C3b
Nature of the assay: SPR, 0.5 µM FH with anti-FH.07 Fab′ (2 to 1 molar ratio) over immobilised C3b. As for the experimental part: (§1) Binding of FH to C3b, iC3b or C3d in the presence of the anti-FH moAbs was determined by surface plasmon resonance using a Biacore T3000 instrument (GE Healthcare, Little Chalfont, UK). Purified C3b, iC3b or C3d (Complement Technologies) was immobilized onto one of three flow cells of a CM5 Biacore Sensor Chip (GE Healthcare) using standard […] coupling. The remaining flow cell was used as reference surface and prepared by performing a coupling reaction without the addition of any protein. A response of 4400 response units (RUs), 4180 RUs and 1470 RUs was obtained after coupling with C3b, iC3b and C3d, respectively. SPR experiments were performed at 25° C. using a flow rate of 10 μl/min and in 10 mM HEPES-buffered 150 mM saline, pH 7.4, with 0.05% (w/v) Tween-20 (HBS-P). Duplicate injections of 0.5 μM FH with a contact time of 210 seconds were performed to obtain a reference binding signal for FH on each surface. […]
(§2) In addition, SPR experiments were conducted to study the interaction of FH with C3b, iC3b and C3d in the absence and presence of […] Fab′ fragments. Briefly, three flow cells of a CM5 Biacore Sensor chip were coated with either C3b, iC3b or C3d and interactions of FH with these surfaces in the absence or presence of anti-FH moAb was determined on a Biacore T3000 system.
In general terms: SPR reads the build-up and loss of mass on a sensor chip optically.

In another assay the target is T5, iC3b (UniProt P01024 23-667; P01024 749-1303; P01024 1321-1663, limits assumed).
T5 construct: domain: iC3b; also called purified iC3b
Briefly: SPR, 0.5 µM FH with anti-FH.07 Fab′ (2 to 1 molar ratio) over immobilised iC3b. How it is done: as §1, §2

In the next assay the target is T1, recombinant FH CCP 15-19. Nature of the assay: radioimmunoassay, moAb on RM-19 sepharose, 125I-labelled fragment. As for the experimental part:
(§3) Reactivity of FH specific moAbs was tested with recombinant human FH fragments composed of multiple CCPs. To this end, fifty microliter of 100 μg/ml anti-FH moAbs was mixed with 0.5 ml of 2 mg/ml RM-19 coupled-sepharose (25 μg moAb per 1 mg CnBr-Sepharose). The FH fragments were labelled with ¹²⁵I and 100 μl (20000 c/30 sec) was added to each sample followed by incubation O/N. The assay was performed in PBS with 0.1% (w/v) Tween-20 and 0.1% (w/v) BSA (PTB). Samples were washed 5 times with PBS with 0.1% (w/v) Tween-20 and counted for 30 seconds. Sepharose bound radioactivity was measured and compared to total input (set to 100%).
(§4) In order to map the binding site of anti-FH.07, we tested the reactivity of this moAb towards a panel of radiolabeled recombinant CCP domains or purified human FH. Binding of the moAbs was tested in a radioimmunoassay and was related to the input (100%).

For the next assay, the target named is T2, recombinant FH CCP 18-20. The assay is described as above. As for the experimental part:
as §3, §4

Another assay concerns the target T3, recombinant FH CCP 15-18. Described as above. As for the experimental part:
as §3, §4

In the assay “human factor H” the target is B1. Nature of the assay: bridging ELISA: FH coat, biotinylated FH for detection. How it is done: One possible mechanism for the observed increased FH inhibitory function upon incubation with anti-FH.07 is multimerization of FH by crosslinking via the antibody, thereby increasing the avidity of FH for the surface. To test this possibility, we generated monovalent Fab′ fragments of anti-FH.07. If crosslinking of FH is the cause of the observed increased FH function, monovalent Fab′ fragments are expected to show no potentiating effect. With a bridging ELISA we first checked whether the generated Fab′ fragments were indeed completely monovalent and not capable to crosslink FH molecules. To this end an ELISA plate was coated with FH and biotinylated FH was used for detection. […] The anti-FH.07 F(ab′)₂ and Fab′ fragments were then tested in the C3 deposition assays on zymosan and LPS coated plates. To our surprise we observed the same potentiating effect of the Fab′ fragments on FH function. […] Therefore we concluded that the effect of anti-FH.07 was not due to crosslinking of FH molecules by the monoclonal antibody.

Assay [2] addresses T4, C3b. Briefly: SPR, Fab′ injected without FH over immobilised C3b. How it is done: Binding of FH to C3b, iC3b or C3d in the presence of the anti-FH moAbs was determined by surface plasmon resonance using a Biacore T3000 instrument (GE Healthcare, Little Chalfont, UK). Purified C3b, iC3b or C3d (Complement Technologies) was immobilized onto one of three flow cells of a CM5 Biacore Sensor Chip (GE Healthcare) using standard […] coupling. The remaining flow cell was used as reference surface and prepared by performing a coupling reaction without the addition of any protein. A response of 4400 response units (RUs), 4180 RUs and 1470 RUs was obtained after coupling with C3b, iC3b and C3d, respectively. SPR experiments were performed at 25° C. using a flow rate of 10 μl/min and in 10 mM HEPES-buffered 150 mM saline, pH 7.4, with 0.05% (w/v) Tween-20 (HBS-P). Duplicate injections of 0.5 μM FH with a contact time of 210 seconds were performed to obtain a reference binding signal for FH on each surface. After each sample injection a dissociation time of 240 seconds was allowed, using HBS-P as running buffer, followed by a single 30 seconds injection of 1 M NaCl to regenerate the surface.
To determine the effect of anti-FH.07 without interference of possible cross-linking via the moAb, Fab′ fragments, generated as described above, were used. […]

A value given as a limit tells only on which side of the number the result lay.

T4 sequence (P01024 23-667 limits assumed, chain 1 of 2): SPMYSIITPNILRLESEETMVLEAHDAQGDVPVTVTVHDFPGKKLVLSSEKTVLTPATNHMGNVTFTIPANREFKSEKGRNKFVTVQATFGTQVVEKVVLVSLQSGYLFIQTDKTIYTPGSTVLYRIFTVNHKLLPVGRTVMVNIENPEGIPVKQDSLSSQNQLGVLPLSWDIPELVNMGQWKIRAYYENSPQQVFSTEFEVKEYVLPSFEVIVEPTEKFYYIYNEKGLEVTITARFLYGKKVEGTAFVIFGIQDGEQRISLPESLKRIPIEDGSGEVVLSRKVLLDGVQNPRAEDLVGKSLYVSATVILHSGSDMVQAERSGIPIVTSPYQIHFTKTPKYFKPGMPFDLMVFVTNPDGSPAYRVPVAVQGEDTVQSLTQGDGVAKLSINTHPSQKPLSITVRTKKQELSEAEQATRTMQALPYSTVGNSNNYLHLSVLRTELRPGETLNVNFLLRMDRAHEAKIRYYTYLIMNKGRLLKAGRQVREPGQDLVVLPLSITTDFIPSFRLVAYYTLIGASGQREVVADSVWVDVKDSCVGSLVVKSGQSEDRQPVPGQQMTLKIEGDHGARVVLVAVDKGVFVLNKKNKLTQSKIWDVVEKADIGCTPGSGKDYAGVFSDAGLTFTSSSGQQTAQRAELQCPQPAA
T4 sequence (P01024 749-1663 limits assumed, chain 2 of 2): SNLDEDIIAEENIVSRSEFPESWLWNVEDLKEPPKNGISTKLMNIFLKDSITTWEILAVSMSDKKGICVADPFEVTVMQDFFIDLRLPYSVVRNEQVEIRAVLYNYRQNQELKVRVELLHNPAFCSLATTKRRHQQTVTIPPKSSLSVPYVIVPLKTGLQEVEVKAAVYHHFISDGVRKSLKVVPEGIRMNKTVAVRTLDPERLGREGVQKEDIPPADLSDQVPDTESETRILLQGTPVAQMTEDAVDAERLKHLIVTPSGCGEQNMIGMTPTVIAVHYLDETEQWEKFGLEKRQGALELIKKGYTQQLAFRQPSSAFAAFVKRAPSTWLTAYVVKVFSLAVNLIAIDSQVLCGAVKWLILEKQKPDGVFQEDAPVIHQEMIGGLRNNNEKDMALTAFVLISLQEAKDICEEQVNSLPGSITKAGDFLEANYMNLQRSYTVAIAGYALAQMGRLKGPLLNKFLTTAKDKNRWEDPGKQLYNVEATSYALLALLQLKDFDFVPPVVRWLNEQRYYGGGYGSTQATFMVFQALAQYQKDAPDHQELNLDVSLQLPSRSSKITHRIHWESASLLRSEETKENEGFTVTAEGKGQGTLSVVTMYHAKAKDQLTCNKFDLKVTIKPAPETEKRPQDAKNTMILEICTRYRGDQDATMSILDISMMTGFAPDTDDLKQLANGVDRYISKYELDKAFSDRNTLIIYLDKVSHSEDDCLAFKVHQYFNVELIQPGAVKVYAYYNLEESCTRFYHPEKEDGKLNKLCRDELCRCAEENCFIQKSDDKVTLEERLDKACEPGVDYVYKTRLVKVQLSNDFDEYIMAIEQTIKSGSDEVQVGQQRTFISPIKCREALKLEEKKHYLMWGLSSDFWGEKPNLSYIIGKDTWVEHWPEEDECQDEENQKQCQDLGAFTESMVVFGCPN
T5 sequence (P01024 23-667 limits assumed, chain 1 of 3): as the sequence (P01024 23-667 limits assumed, chain 1 of 2) above
T5 sequence (P01024 749-1303 limits assumed, chain 2 of 3): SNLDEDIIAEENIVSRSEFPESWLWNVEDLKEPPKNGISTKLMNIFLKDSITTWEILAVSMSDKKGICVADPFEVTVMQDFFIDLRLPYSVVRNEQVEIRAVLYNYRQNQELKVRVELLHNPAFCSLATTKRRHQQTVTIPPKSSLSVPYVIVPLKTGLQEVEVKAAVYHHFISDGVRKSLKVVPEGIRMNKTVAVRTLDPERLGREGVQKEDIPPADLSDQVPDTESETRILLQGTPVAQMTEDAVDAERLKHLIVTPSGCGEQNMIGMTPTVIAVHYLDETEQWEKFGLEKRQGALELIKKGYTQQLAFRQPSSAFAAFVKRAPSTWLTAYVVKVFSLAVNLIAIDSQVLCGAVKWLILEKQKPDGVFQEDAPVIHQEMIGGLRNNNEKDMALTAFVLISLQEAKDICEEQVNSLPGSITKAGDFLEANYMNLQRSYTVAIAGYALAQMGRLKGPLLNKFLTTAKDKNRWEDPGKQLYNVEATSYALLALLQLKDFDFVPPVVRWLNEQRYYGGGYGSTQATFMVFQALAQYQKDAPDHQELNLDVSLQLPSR
T5 sequence (P01024 1321-1663 limits assumed, chain 3 of 3): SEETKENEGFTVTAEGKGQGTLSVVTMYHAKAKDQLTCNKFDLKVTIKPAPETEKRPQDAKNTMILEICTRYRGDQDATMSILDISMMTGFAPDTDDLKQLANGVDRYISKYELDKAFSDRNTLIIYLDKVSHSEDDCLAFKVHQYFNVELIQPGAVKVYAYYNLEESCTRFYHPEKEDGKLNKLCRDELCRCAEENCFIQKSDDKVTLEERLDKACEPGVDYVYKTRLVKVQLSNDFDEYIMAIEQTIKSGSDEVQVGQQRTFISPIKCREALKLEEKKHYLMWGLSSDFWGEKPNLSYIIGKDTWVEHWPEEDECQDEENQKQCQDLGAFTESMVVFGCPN

B1: the “fold increase of the measured interactions (RU) with anti-FH.07 Fab′ against FH alone” value in the assay with C3b [1] and with iC3b was not below 2 fold each time.
With B2, the binding result with recombinant FH CCP 15-19, with recombinant FH CCP 18-20, in the assay with recombinant FH CCP 15-18 and in the assay with human factor H was “binds” throughout.
Consider B3, for which the binding result with human factor H is “binds”.
B4: in the assay with C3b [2], the binding result is listed as “no binding”.
